The source of these data is patent publication US20190062453A1 (Hoffmann-La Roche, published 2019).

In test [1] the target is T1, human DR5 ECD-Avi-his (human, UniProt O14763 56-207).
T1 construct: also called recombinant human DR5 (monomeric His-Avi fusion protein); monomeric human DR5
Put plainly: SPR, rabbit IgG captured by anti rabbit, monomeric DR5 injected.
Method: The sample and system buffer was PBS-T (10 mM phosphate buffered saline including 0.05% Tween20) pH 7.4. The flow cell was set to 25° C.—and the sample block set to 12° C.—and primed with running buffer twice.
The dissociation phase was monitored for up to 300 sec and triggered by switching from the sample solution to running buffer. The surface was regenerated by 60 sec washing with a 100 mM H3PO4 (phosphoric acid) solution at a flow rate of 30 μl/min. Bulk refractive index differences were corrected by subtracting the response obtained from a blank surface. Buffer injections are also subtracted (=double referencing). For calculation of KD and other kinetic parameters the Langmuir 1:1 model was used.

For test [2], the target named is T2, Cynom. DR5 (ECD)-AcTev-Fc-Avi (cynomolgus).
T2 construct: also called cynomolgus DR5; cy DR5
Put plainly: biochemical ELISA, biotinylated antigen on streptavidin plate.
Method: Antigen binding immunoassays were performed at room temperature on 384 well streptavidin coated microtiter plates (MicroCoat Biotechnologie GmbH) with PBS buffer supplemented with 0.05% Tween®-20 and 0.5% BSA (Roche Diagnostics GmbH). […] After 90 min incubation the plate was washed 6 times with PBST (phosphate buffered saline with 0.2% Tween®-20) and developed with BM Blue® HRP substrate solution (BM Blue®: 3,3′-5,5′-Tetramethylbenzidine, Roche Diagnostics GmbH) for 30 minutes at RT. Absorbance was measured at 370 nm. The blank value was defined without addition of supernatant.

The target of test [3] is T3, human DR5 (monomeric Fc fusion) (human, UniProt O14763 56-207, biotinylated at the Avi tag in the ELISA (the tag is not in the letters)).
T3 construct: biotinylated in the ELISA; also called ECD-AcTev-hu Fc knob-Avi; not shown: AcTev site, hu Fc knob and Avi part of the fusion chain, and the separate Fc-hole chain
Described as above.

For test [4], the target named is T4, Recombinant human DcR1-Fc (human, UniProt O14798 26-221).
T4 construct: bought; also called huDcR1Fc; human DcR1 (TNFRSF10C); Fc part of the bought chimera not given
T4 sequence (looked up): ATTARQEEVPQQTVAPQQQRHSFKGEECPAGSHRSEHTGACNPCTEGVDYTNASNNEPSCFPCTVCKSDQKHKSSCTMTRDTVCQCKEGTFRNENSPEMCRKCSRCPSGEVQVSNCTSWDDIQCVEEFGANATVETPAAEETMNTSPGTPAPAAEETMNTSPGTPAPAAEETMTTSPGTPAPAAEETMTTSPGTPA
Put plainly: binding ELISA.

Test [5] addresses T5, Recombinant human DcR2-Fc (human, UniProt Q9UBN6 56-211).
T5 construct: bought for the phage antibodies; also called huDcR2Fc; human DcR2 (TNFRSF10D); not shown: Fc part of the chimera
T5 sequence (looked up): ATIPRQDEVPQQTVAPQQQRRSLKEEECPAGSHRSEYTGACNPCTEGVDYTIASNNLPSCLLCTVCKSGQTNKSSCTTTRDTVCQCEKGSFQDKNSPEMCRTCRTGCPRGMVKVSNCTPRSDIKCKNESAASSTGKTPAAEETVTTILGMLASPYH
Put plainly: binding ELISA. (In general: An ELISA detects its analyte on a solid surface through an enzyme-linked reagent.)

For test [6], the target named is T6, Recombinant human OPG-Fc (human, UniProt O00300 22-194).
T6 construct: bought; also called rhuOPGFc; human Osteoprotegerin; Fc part of the bought chimera not given
T6 sequence (looked up): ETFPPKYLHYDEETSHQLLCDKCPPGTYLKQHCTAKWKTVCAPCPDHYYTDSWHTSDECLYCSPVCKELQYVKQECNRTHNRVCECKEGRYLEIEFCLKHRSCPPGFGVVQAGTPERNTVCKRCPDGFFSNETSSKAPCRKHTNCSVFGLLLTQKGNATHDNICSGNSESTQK
Put plainly: binding ELISA.

The target in test [7] is T7, murine DR5 ECD-AcTev-hu Fc-Avi (murine, UniProt Q9QZM4 53-153).
T7 construct: range 53-153; also called mouse DR5
Put plainly: binding ELISA.

For test [8], the target named is T8, Recombinant human DR4-Fc (human, UniProt O00220 109-239).
T8 construct: bought; also called huDR4Fc; human DR4 (TNFRSF10A); Fc part of the bought chimera not given
Put plainly: binding ELISA.

For test [9], the target named is T9, Murine FAP ectodomain + poly-lys-tag + his6-tag (murine, UniProt P97321 27-761).
T9 construct: also called recombinant soluble murine FAP
Put plainly: SPR (Biacore), bispecific antibody bound to immobilised human DR5-Fc, recombinant murine FAP as second analyte (simultaneous binding).
Method: (§1) The dissociation was monitored for 60 s. The flow rate for all steps was 30 μl/min.

Test [10] deals with T10, Human FAP ectodomain + poly-lys-tag + his6-tag (human, UniProt Q12884 27-760).
T10 construct: also called recombinant soluble human FAP; hFAP
Put plainly: SPR (Biacore), bispecific antibody bound to immobilised human DR5-Fc, recombinant human FAP as second analyte (simultaneous binding). In general terms: Surface plasmon resonance follows binding to a sensor surface in real time, without labels.
Method: as §1

T9 sequence (P97321 other isoform, or with tags, fused parts or gaps): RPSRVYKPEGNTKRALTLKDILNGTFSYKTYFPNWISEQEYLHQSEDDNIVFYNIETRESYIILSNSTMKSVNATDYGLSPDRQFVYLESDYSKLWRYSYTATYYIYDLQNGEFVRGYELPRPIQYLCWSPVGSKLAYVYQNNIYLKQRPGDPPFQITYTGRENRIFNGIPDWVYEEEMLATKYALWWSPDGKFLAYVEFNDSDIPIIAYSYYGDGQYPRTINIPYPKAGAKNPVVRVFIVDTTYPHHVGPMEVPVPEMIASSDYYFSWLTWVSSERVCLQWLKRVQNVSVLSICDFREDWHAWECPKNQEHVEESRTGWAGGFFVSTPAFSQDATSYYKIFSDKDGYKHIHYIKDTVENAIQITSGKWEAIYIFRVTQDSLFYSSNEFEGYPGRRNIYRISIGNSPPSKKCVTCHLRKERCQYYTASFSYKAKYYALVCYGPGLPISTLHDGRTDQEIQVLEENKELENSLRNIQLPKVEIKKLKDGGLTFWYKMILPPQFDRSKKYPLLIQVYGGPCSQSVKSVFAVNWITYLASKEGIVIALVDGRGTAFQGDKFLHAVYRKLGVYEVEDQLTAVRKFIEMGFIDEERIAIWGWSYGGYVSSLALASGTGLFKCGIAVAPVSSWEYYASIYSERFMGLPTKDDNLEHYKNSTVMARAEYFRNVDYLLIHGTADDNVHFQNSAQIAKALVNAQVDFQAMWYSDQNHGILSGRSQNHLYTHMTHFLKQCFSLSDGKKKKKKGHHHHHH

B1: DR5TAA-0005 (antibody, V domains shown)
VH: QSLEESGGRLVTPGTPLTLTCTASGFSLSSAYMSWVRQAPGKGLEWIGYIYSGSGSTWYASWVKGRFTISKTSTTVDLKITSPTTEDTATYFCARGYSTMGDLWGPGTLVTVSS
VL: QVLTQTPSPVSAAVGGTVTINCQASQSVYNNRLAWYQQKPGQPPKLLIYLASTLASGVPSRFKGSGSGTQFTLTISDLQCDDAATYYCAGGYSGNINAFGGGTEVVVKG
notes: rabbit IgG; also called 039; clone 039
On to B1, for which the Kd (in general, a measure of binding affinity in units of concentration) in test [1] was 13.3 nM. Also, the half-maximal effective concentration (EC50) (as a rule, the concentration that produces a half-maximal response) was 3.7 ng/mL in [2] and 2.5 ng/mL in [3]. Further, the binding result in test [4], in test [5], in test [6], in [7] and in test [8] was “no binding” each time.

B2: DR5TAA-0019 (antibody, V domains shown)
VH: QSVEESGGRLVTPGTPLTLTCTVSGFSLSNYAMSWVRQAPGKGLEWIGIISSSGTTYYASWAKGRFTISKTSTTVDLKVTSPTTEDTATYFCARETYYGYSYAAGLWGPGTLVTVSS
VL: ALVMTQTPSSVSAAVGGTVTINCQASQNIYSNLAWFQQKPGQPPKLLIYETSKLASGVPSRFSGSGSGTEFTLTISDLECDDAATYYCQSSWHSISTDCAFGGGTEVVVKG
notes: rabbit IgG
Molecule B2 had an equilibrium dissociation constant (Kd) in [1] of 0.675 nM. Further, the EC50 in test [2] came to 2.2 ng/mL; in [3] it was 3.5 ng/mL. The binding result in test [4], in [5], in test [6], in [7] and in test [8] was “no binding” throughout.

B3: DR5TAA-0032 (bispecific antibody, human IgG1, kappa)
HC (DR5-crossed FAP): not shown
LC (DR5): AQVLTQTPSPVSAAVGGTVTINCQASQSVYNNRLAWYQQKPGQPPKLLIYLASTLASGVPSRFKGSGSGTQFTLTISDLQCDDAATYYCAGGYSGNINAFGGGTEVVVKRTVAAPSVFIFPPSDEQLKSGTASVVCLLNNFYPREAKVQWKVDNALQSGNSQESVTEQDSKDSTYSLSSTLTLSKADYEKHKVYACEVTHQGLSSPVTKSFNRGEC
Crossed LC (FAP): EIVLTQSPGTLSLSPGERATLSCRASQSVSRSYLAWYQQKPGQAPRLLIIGASTRATGIPDRFSGSGSGTDFTLTISRLEPEDFAVYYCQQGQVIPPTFGQGTKVEIKSSASTKGPSVFPLAPSSKSTSGGTAALGCLVKDYFPEPVTVSWNSGALTSGVHTFPAVLQSSGLYSLSSVVTVPSSSLGTQTYICNVNHKPSNTKVDKKVEPKSCD
notes: also called 039-28H1
On to B3, for which the binding result in test [9] and in [10] was “binds” each time.

B4: DR5TAA-0034 (bispecific antibody, human IgG1, kappa)
HC (DR5-crossed FAP): not shown
LC (DR5): ALVMTQTPSSTSEPVGGTVTIKCQASQSIGSSLSWYQQTPGQPPKLLIYTASSLASSVPKRFSGSRSGTQFTLTISGVQCADAATYYCLGIDDVRRDDGFAFGGGTEVVVKRTVAAPSVFIFPPSDEQLKSGTASVVCLLNNFYPREAKVQWKVDNALQSGNSQESVTEQDSKDSTYSLSSTLTLSKADYEKHKVYACEVTHQGLSSPVTKSFNRGEC
Crossed LC (FAP): EIVLTQSPGTLSLSPGERATLSCRASQSVSRSYLAWYQQKPGQAPRLLIIGASTRATGIPDRFSGSGSGTDFTLTISRLEPEDFAVYYCQQGQVIPPTFGQGTKVEIKSSASTKGPSVFPLAPSSKSTSGGTAALGCLVKDYFPEPVTVSWNSGALTSGVHTFPAVLQSSGLYSLSSVVTVPSSSLGTQTYICNVNHKPSNTKVDKKVEPKSCD
notes: also called 298-28H1
Turning to B4, the binding result in test [9] and in test [10] was “binds” in each case.

B5: DR5TAA-0036 (bispecific antibody, human IgG1, kappa)
HC (DR5-crossed FAP): not shown
LC (DR5): ALVMTQTPSSVSAAVGGTVTINCQASQNIYSNLAWFQQKPGQPPKLLIYETSKLASGVPSRFSGSGSGTEFTLTISDLECDDAATYYCQSSWHSISTDCAFGGGTEVVVKRTVAAPSVFIFPPSDEQLKSGTASVVCLLNNFYPREAKVQWKVDNALQSGNSQESVTEQDSKDSTYSLSSTLTLSKADYEKHKVYACEVTHQGLSSPVTKSFNRGEC
Crossed LC (FAP): EIVLTQSPGTLSLSPGERATLSCRASQSVSRSYLAWYQQKPGQAPRLLIIGASTRATGIPDRFSGSGSGTDFTLTISRLEPEDFAVYYCQQGQVIPPTFGQGTKVEIKSSASTKGPSVFPLAPSSKSTSGGTAALGCLVKDYFPEPVTVSWNSGALTSGVHTFPAVLQSSGLYSLSSVVTVPSSSLGTQTYICNVNHKPSNTKVDKKVEPKSCD
B5: the binding result in [9] and in test [10] was “binds” in each case.

B6: DR5TAA-0006 (antibody, V domains shown)
VH: QSLEESGGRLVTPGTPLTLTCTASGFSLSSNHMSWVRQAPGKGLEWIGYIYAGSGSAYYASWAKGRFTISRTSTTVDLKMTSLTTEDTATYFCAGDAGSSYWEFNLWGPGTLVTVSS
VL: LVMTQTPSSTSEPVGGTVTIKCQASQSIGSSLSWYQQKPGQPPKLLIYHASTLASGVPSRFSGSRSGIQTTLTISGVQCDDAATYYCLGVADARRDDGFAFGGGTEVVVKG
notes: rabbit IgG; also called 058; clone 058
In the case of B6, the Kd in [1] came out at 5.92 nM. Also, the concentration for a half-maximal effect (EC50) in test [2] was 1.6 ng/mL; in [3], 2 ng/mL. Also, the binding result in test [4], in test [5], in test [6], in test [7] and in [8] was “no binding” throughout.

B7: DR5TAA-0013 (antibody, V domains shown)
VH: QSLEESGGRLVTPGTPLTLTCTASGFTISSYHMSWVRQAPGKGLEWIGYIYAGSASTWYASWVKGRFTISKTSTTVDLKMTSLTTEDTATYFCARDAGSSYWEFNLWGPGTLVTVSS
VL: LVMTQTPSSTSEPVGGTVTIKCQASQSIGSSLSWYQQTPGQPPKLLIYTASSLASSVPKRFSGSRSGTQFTLTISGVQCADAATYYCLGIDDVRRDDGFAFGGGTEVVVKG
notes: rabbit IgG; also called 298; clone 298
In [1], B7 registered a dissociation constant (Kd) of 9.12 nM. Moreover, the EC50 in test [2] and in [3] was 2.1 ng/mL in each case. Besides, the binding result in test [4], in [5], in [6], in [7] and in test [8] was “no binding” throughout.

B8: DR5TAA-0016 (antibody, V domains shown)
VH: QSLEESGGRLVKPDETLTLTCTVSGFSLNNYAMSWVRQAPGKGLEWIGMINKYGTKYYATWTKGRATISKTSTTLDLEITSPTTEDTATYFCARVRYAGDDYAEWLDVWGQGILVTVSS
VL: DIVMTQTASPVSAAVGGTVTINCQASQSISSSYVSWYQQKPGQPPKLLIYKASTLASGVPSRFSGSGSGTQLSLTIRGVQCDDAATYYCLYGYSDVSSSEYVFGGGTEVVVRG
Turning to B8, in test [1], the equilibrium dissociation constant (Kd) came out at 1.45 nM. For the same molecule, the EC50 in test [2] amounted to 2.7 ng/mL; in test [3] it was 4 ng/mL. Besides, the binding result in test [4], in test [5], in test [6], in [7] and in test [8] was “no binding” in each case.

B9: DR5TAA-0010 (antibody, V domains shown)
VH: QSLEESGGRLVKPDETLTLTCTVSGFSLSSNAISWVRQAPGMGLEWIGIIGSSGYTYYASWAKGRFTVSKTSTTVDLEIASPTTEDTATYFCARGYSGASDYSFNLWGPGTLVTVSS
VL: AYDMTQTPDSVEVAVGGTVTIKCQASQTIGDALAWYQQKPGQRPNLLIYRTSTLASGVPSRFSGSGSGTHFTLTISGVECADAATYYCQQGATYNNVLNTFGGGTEVVVKG
notes: rabbit IgG; also called 481; clone 481
B9: binding in test [1] was characterised by a dissociation constant (Kd) of 15.9 nM. Besides, the EC50 worked out at 8.7 ng/mL in test [2] and 2.8 ng/mL in test [3]. The binding result in test [4], in test [5], in test [6], in [7] and in test [8] was “no binding” each time.
